In paper doi:10.1101/2021.05.25.445634 one finds stoichiometry N data, which are given here for one substance.

The target of this experiment is TnsC of the type V-K CRISPR-associated transposase system from S. hofmanni (ShCAST) (S. hofmanni). In words: cryo-EM structure.

As a reminder, the stoichiometry N is a count of units in the complex or per binding partner. “TnsC of the type V-K CRISPR-associated transposase system from S. hofmanni (ShCAST) (natural protein)” had a stoichiometry N of 12 subunits.
